Measurements as given in US20220202899A1, “COMPOSITION FOR PREVENTION OR TREATMENT OF HAIR LOSS INCLUDING HAPLN1” (HAPLNSCIENCE INC., priority 2019, published 2022).

Experiments:
TβRII = TβRII protein after exogenous HAPLN1 and/or HA in endogenous HAPLN1-deficient human hair germinal matrix cells; format: cell-based; conditions: after HAPLN1 siRNA; HAPLN1 25 ng/mL and/or HA 25 μg/mL; TGF-β2 2 ng/mL, 23 hours
Description: The human hair germinal matrix cells were dispensed into a poly-D-lysine 6-well plate at a concentration of 5.0×10^4 per well and cultured for 24 hours. After 24 hours, the medium was removed and replaced with a low-serum medium. HAPLN1 siRNA and scrambled siRNA were added at a concentration of 25 pmol per well and incubated for 24 hours. After the siRNA and the medium were all removed, the medium was replaced with a serum-free medium having HAPLN1 (25 ng/mL) or HA (25 μg/mL) added thereto, and cultured for 1 hour. TGF-β2 (2 ng/mL) was treated and incubated for 23 hours. After collecting cells, a lysis buffer (25 mM Tris-HCl, 1 mM EDTA, 0.1% Triton-X100, phosphatase inhibitor, and protease inhibitor) was added, and all the cells were broken through sonication. TβRII in the sample was measured using Western blotting. The optical density of TβRII was compared to that of GAPDH using a densitometer.

HAS2 = HAS2 protein in human hair germinal matrix cells deficient in endogenous HA (4-MU); format: cell-based; conditions: 4-MU-treated cells; HAPLN1 25 ng/mL; TGF-β2 2 ng/mL
Description: 4-MU (4-methylumbelliferone) is an inhibitor of HA-producing hyaluronan synthase 2 (HAS2), which produces HA. In order to confirm the effect of HA produced in cells, HA production in cells was inhibited using 4-MU.
The human hair germinal matrix cells, in which the endogenous HA was inhibited by treating 4-MU, were dispensed into a poly-D-lysine 6-well plate at a concentration of 5.0×10^4 per well and cultured for 24 hours. After 24 hours, the medium was removed and replaced with a new serum-free medium. HAPLN1 was treated with 25 ng/mL, and after 1 hour, TGF-β2 (2 ng/mL) was treated. After 23 hours, cells were collected, a lysis buffer (25 mM Tris-HCl, 1 mM EDTA, 0.1% Triton-X100, phosphatase inhibitor, and protease inhibitor) was added, and all the cells were broken through sonication. HAS2 and TβRII in the sample were measured using Western blotting. The optical density of each of HAS2 and TβRII was compared to that of GAPDH using a densitometer.

cell membrane TβRII = assay: Cell membrane TβRII protein (biotin labelling, immunoprecipitation, Western blotting); format: cell-based, human; conditions: HAPLN1 25 ng/mL and/or HA 25 μg/mL; TGF-β2 2 ng/mL
Description: All proteins present in the cell membrane were labeled with biotin, and immunoprecipitation was performed with a biotin antibody to isolate only the cell membrane protein. In order to confirm changes in the ratio of TβRII among cell membrane proteins, Western blotting was performed. The specific experimental method will now be described.
Human hair germinal matrix cells were dispensed into a poly-D-lysine 100 mm dish at a concentration of 2.7×10^6 and cultured for 24 hours. After 24 hours, the medium was removed and replaced with a new serum-free medium. HAPLN1 was treated with 25 ng/mL and HA with 25 μg/mL, and after 1 hour, TGF-β2 (2 ng/mL) was treated. To label biotin after 23 hours, EZ-Link™ Sulfo-NHS-LC-Biotin (Thermo Fisher Scientific, MA, USA) was treated at a concentration of 250 μg/mL and incubated at 4° C. for 1 hour. The biotin labeling reaction was terminated by treatment with 50 mM Tris-HCl. After collecting cells, a lysis buffer (50 mM Tris-HCl, 150 mM NaCl, 1% NP-40, phosphatase inhibitor, and protease inhibitor) was added, and all the cells were broken through sonication. Cell membrane proteins were isolated by performing immunoprecipitation experiments using anti-biotin antibodies. TβRII in the isolated membrane protein sample was measured using Western blotting. The optical density of TβRII was compared to that of GAPDH using a densitometer.

p-ERK1/2 = p-ERK1/2 in human hair germinal matrix cells stimulated with TGF-β2 (Western blotting); format: cell-based; conditions: TGF-β2 2 ng/mL, 1 hour
Description: (§1) Human hair germinal matrix cells were dispensed into a poly-D-lysine 6-well plate at a concentration of 5.0×10^4 per well and cultured for 24 hours. After 24 hours, the medium was removed and replaced with a new serum-free medium. HAPLN1 was treated with 25 ng/mL and HA with 25 μg/mL, incubated for 23 hours, and then stimulated with TGF-β2 (2 ng/mL) for 1 hour. After collecting cells, a lysis buffer (25 mM Tris-HCl, 1 mM EDTA, 0.1% Triton-X100, phosphatase inhibitor, and protease inhibitor) was added, and all the cells were broken through sonication. p-ERK1/2, p-Smad2, p-MEK1/2, and p-c-Raf in the sample were measured using Western blotting. Optical densities of p-ERK1/2, p-Smad2, p-MEK1/2, and p-c-Raf were compared to those of ERK1/2, Smad2/3, MEK1, and c-Raf using a densitometer. Here, ERK1/2, Smad2/3, MEK1, and c-Raf were used as loading controls.

p-Smad2 = p-Smad2 in human hair germinal matrix cells stimulated with TGF-β2 (Western blotting); format: cell-based; conditions: HAPLN1 25 ng/mL and/or HA 25 μg/mL; TGF-β2 2 ng/mL, 1 hour
Description: as §1

p-MEK1/2 = p-MEK1/2 in human hair germinal matrix cells stimulated with TGF-β2 (Western blotting); format: cell-based; conditions: HAPLN1 25 ng/mL and/or HA 25 μg/mL; TGF-β2 2 ng/mL, 1 hour
Description: as §1

[1] = tested on: human dermal papilla cells; assay: Dermal papilla cell proliferating effect, CCK-8 (Example 13); format: cell-based; conditions: proteins 25 ng/ml, minoxidil 10 μM; TGF-β2 (2 ng/ml) present or absent
Description: Human dermal papilla cells were cultured in a 37° C., 5% CO2 incubator using a dermal papilla cell proliferation medium (Promocell). When the cells were about 90% full, the cells were detached with a 0.05% Trypsin/EDTA solution and then centrifuged at 1000 rpm for 3 minutes to recover only the cells. The cells were dispensed into a 96-well plate at 2.0×10^3 per well, cultured for 24 hours, and HAPLN1, CX3CL1 and CDON were diluted to have a final concentration of 25 ng/ml in serum-free medium. After removing the existing culture medium, 200 μl of diluted HAPLN1, CX3CL1, and CDON were dispensed into each well and cultured for 1 hour. To reduce an experimental variation, 3 wells per group were treated (triplication). In addition, minoxidil, which is known to proliferate dermal papilla cells, was treated with 10 μM and set as a positive control.
In the same manner as described above, HAPLN1 (25 ng/ml), CX3CL1 (25 ng/ml), CDON (25 ng/ml) or minoxidil (10 μM), and human recombinant TGF-β2 were diluted to a final concentration of 2 ng/ml, and the medium of the group containing TGF-β2 was replaced by 200 μl. To reduce an experimental variation, 3 wells per group were treated (triplication).
After incubation for 23 hours, the plate was removed from the incubator, and 20 μl of CCK-8 (WST-8) solution was added to the plate containing the medium and the reagent per 200 μl of the medium for the reaction to be carried out at 37° C. for 1 hour.

B1: hyaluronan and proteoglycan link protein 1 (protein, UniProt P10915 16-354, looked up)
Hyaluronan and proteoglycan …: DHLSDNYTLDHDRAIHIQAENGPHLLVEAEQAKVFSHRGGNVTLPCKFYRDPTAFGSGIHKIRIKWTKLTSDYLKEVDVFVSMGYHKKTYGGYQGRVFLKGGSDSDASLVITDLTLEDYGRYKCEVIEGLEDDTVVVALDLQGVVFPYFPRLGRYNLNFHEAQQACLDQDAVIASFDQLYDAWRGGLDWCNAGWLSDGSVQYPITKPREPCGGQNTVPGVRNYGFWDKDKSRYDVFCFTSNFNGRFYYLIHPTKLTYDEAVQACLNDGAQIAKVGQIFAAWKILGYDRCDAGWLADGSVRYPISRPRRRCSPTEAAVRFVGFPDKKHKLYGVYCFRAYN
notes: extracellular matrix protein found in cartilage; stabilizes aggregates of hyaluronic acid and proteoglycans
- TβRII protein in endogenous HAPLN1-deficient cells (TβRII): recovered
- HAS2 level (HAS2): recovered
- cell membrane TβRII protein concentration (cell membrane TβRII): increased
- ERK1/2 signaling (p-ERK1/2 compared to ERK1/2) (p-ERK1/2; HAPLN1 25 ng/mL and/or HA 25 μg/mL, 23 hours): activated
- ERK1/2 signaling, HAPLN1 treated together with HA (p-ERK1/2; HAPLN1 25 ng/mL with HA 25 μg/mL): enhanced the activation of ERK1/2 signaling of HA
- phosphorylation of Smad2 (p-Smad2): no change
- MEK1/2 activity (p-MEK1/2 compared to MEK1) (p-MEK1/2): increased activities
- dermal papilla cell proliferation (absorbance at 450 nm) [1]: did not proliferate dermal papilla cells or rather inhibited proliferation thereof
